From patent US20140199709A1 come the findings set out here.

This assay addresses human mast cell β-tryptase (human) (UniProt Q15661). The assay can be described thus: sandwich ELISA, luminescence (CSPD): rabbit anti-human tryptase coated as capture, human tryptase titrated, AP-labeled G3 as detection; EC50 is of the tryptase concentration.
Chain of UniProt Q15661 (Q15661 31-275 limits assumed): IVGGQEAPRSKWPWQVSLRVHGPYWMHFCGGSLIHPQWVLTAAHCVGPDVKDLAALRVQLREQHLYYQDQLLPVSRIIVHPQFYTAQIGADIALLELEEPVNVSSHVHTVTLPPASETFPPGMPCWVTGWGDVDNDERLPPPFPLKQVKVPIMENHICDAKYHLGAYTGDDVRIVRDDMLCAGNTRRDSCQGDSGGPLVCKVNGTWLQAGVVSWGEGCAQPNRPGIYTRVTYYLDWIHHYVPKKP

Substance “anti-tryptase antibody G3 (sc-33676; Santa Cruz Biotechnology, Inc.), alkaline phosphatase conjugated” registered an EC50 of 0.065 µg/mL.

The EC50 is the concentration giving half of the maximal effect.
